What was measured:
Test in all cases: cell_activity
[1] = system: LDLRE2.1 (LDLR2.1) TALEN pair (synthetic construct); conditions: mRNA, pig fibroblasts, 30 C; plasmid 14.4-21.5
[2] = system: ACAN12 TALEN pair (+231) (synthetic construct); conditions: +231 scaffold in fibroblasts; indels confirmed in bovine embryos (Table 2)
[3] = system: ACAN12 TALEN pair (+63) (synthetic construct); conditions: SURVEYOR, bovine fibroblasts; 29 in Table 1
[4] = system: DMDE6 TALEN pair (synthetic construct); conditions: pig fibroblasts
[5] = system: DMDE7.1 TALEN pair (synthetic construct); conditions: SURVEYOR, pig fibroblasts; 27 in Table 1
[6] = system: GHRHR2.3 TALEN pair (synthetic construct); conditions: mRNA, female pig fibroblasts; male 32.5; puro-free plasmid G-418 29
[7] = system: LDLRE4.2 TALEN pair (synthetic construct); conditions: male pig fibroblasts; female 19
[8] = system: p65 (p6511.1) TALEN pair (synthetic construct); conditions: 10 ng/ul mRNA each, porcine zygotes

CTCCTACAAGTGGATTGTGATGGGAACACCGAGTGCAAGGACGGGTCCG (double strand) [porcine LDLR exon 2 target]
activity (% modified (day 3)) [1]: 34

bovine ACAN12 target
activity (% chromosomes cleaved) [2]: < 1
activity (% chromosomes cleaved) [3]: 25

porcine DMD exon 6 target
activity (% modified (day 3)) [4]: 25

porcine DMD exon 7 target
activity (% chromosomes cleaved) [5]: 38

porcine GHRHR target
activity (% modified (day 3)) [6]: 35

porcine LDLR exon 4 target
activity (% modified (day 3)) [7]: 20

porcine RELA (p65) target
activity (% embryos with indels (16/56)) [8]: 29

From patent US20130117870
